Measured values reported in publication PMC8084935 (Nature chemical biology, 2021).
*: point of attachment. COSH = C-terminal thiocarboxylate, S*

The binders below were run against MtYcaO (YcaO from Methanothermobacter sp. CaT2), MBP-His tag cut in the assay mixture (Methanothermobacter sp. CaT2) (assay: fluorescence polarisation).

EC50 [µM]	Binder
4.9	MtTfuA-E67A (enzyme) MHGKKIIIFTGPSLSHTEASSILEAEYRPPVRRGDIQEAMKENPDIIGIIDGVFHQSPAVGHRAIIDAIRRGVKVVGGASMGALRASELSDLGMVGVGRIFRSYLEGEIESDDDVAVAFNPETLEPLSDSLVSIEFNLKRALRRGVIREDDFRKLMNTARNLFYPLRNYRRILHESGIPDDVKESLRSFLESEGRDLKREDALEVIRHIKRLAYTE
> 30	MtTfuA-R170A (enzyme) MHGKKIIIFTGPSLSHTEASSILEAEYRPPVRRGDIQEAMKENPDIIGIIDGVFHQSPAVGHREIIDAIRRGVKVVGGASMGALRASELSDLGMVGVGRIFRSYLEGEIESDDDVAVAFNPETLEPLSDSLVSIEFNLKRALRRGVIREDDFRKLMNTARNLFYPLANYRRILHESGIPDDVKESLRSFLESEGRDLKREDALEVIRHIKRLAYTE
> 30	MtTfuA-V118A (enzyme) MHGKKIIIFTGPSLSHTEASSILEAEYRPPVRRGDIQEAMKENPDIIGIIDGVFHQSPAVGHREIIDAIRRGVKVVGGASMGALRASELSDLGMVGVGRIFRSYLEGEIESDDDAAVAFNPETLEPLSDSLVSIEFNLKRALRRGVIREDDFRKLMNTARNLFYPLRNYRRILHESGIPDDVKESLRSFLESEGRDLKREDALEVIRHIKRLAYTE
3.1	MtTfuA-R206A (enzyme) MHGKKIIIFTGPSLSHTEASSILEAEYRPPVRRGDIQEAMKENPDIIGIIDGVFHQSPAVGHREIIDAIRRGVKVVGGASMGALRASELSDLGMVGVGRIFRSYLEGEIESDDDVAVAFNPETLEPLSDSLVSIEFNLKRALRRGVIREDDFRKLMNTARNLFYPLRNYRRILHESGIPDDVKESLRSFLESEGRDLKAEDALEVIRHIKRLAYTE
3.9	MtTfuA-D208N (enzyme) MHGKKIIIFTGPSLSHTEASSILEAEYRPPVRRGDIQEAMKENPDIIGIIDGVFHQSPAVGHREIIDAIRRGVKVVGGASMGALRASELSDLGMVGVGRIFRSYLEGEIESDDDVAVAFNPETLEPLSDSLVSIEFNLKRALRRGVIREDDFRKLMNTARNLFYPLRNYRRILHESGIPDDVKESLRSFLESEGRDLKRENALEVIRHIKRLAYTE
> 30	MtTfuA-E91Q (enzyme) MHGKKIIIFTGPSLSHTEASSILEAEYRPPVRRGDIQEAMKENPDIIGIIDGVFHQSPAVGHREIIDAIRRGVKVVGGASMGALRASQLSDLGMVGVGRIFRSYLEGEIESDDDVAVAFNPETLEPLSDSLVSIEFNLKRALRRGVIREDDFRKLMNTARNLFYPLRNYRRILHESGIPDDVKESLRSFLESEGRDLKREDALEVIRHIKRLAYTE
2.9	MtTfuA-D203A (enzyme) MHGKKIIIFTGPSLSHTEASSILEAEYRPPVRRGDIQEAMKENPDIIGIIDGVFHQSPAVGHREIIDAIRRGVKVVGGASMGALRASELSDLGMVGVGRIFRSYLEGEIESDDDVAVAFNPETLEPLSDSLVSIEFNLKRALRRGVIREDDFRKLMNTARNLFYPLRNYRRILHESGIPDDVKESLRSFLESEGRALKREDALEVIRHIKRLAYTE
3.8	MtTfuA-F57A (enzyme) MHGKKIIIFTGPSLSHTEASSILEAEYRPPVRRGDIQEAMKENPDIIGIIDGVAHQSPAVGHREIIDAIRRGVKVVGGASMGALRASELSDLGMVGVGRIFRSYLEGEIESDDDVAVAFNPETLEPLSDSLVSIEFNLKRALRRGVIREDDFRKLMNTARNLFYPLRNYRRILHESGIPDDVKESLRSFLESEGRDLKREDALEVIRHIKRLAYTE
> 30	MtTfuA-Y107A (enzyme) MHGKKIIIFTGPSLSHTEASSILEAEYRPPVRRGDIQEAMKENPDIIGIIDGVFHQSPAVGHREIIDAIRRGVKVVGGASMGALRASELSDLGMVGVGRIFRSALEGEIESDDDVAVAFNPETLEPLSDSLVSIEFNLKRALRRGVIREDDFRKLMNTARNLFYPLRNYRRILHESGIPDDVKESLRSFLESEGRDLKREDALEVIRHIKRLAYTE
> 30	MtTfuA-L87A (enzyme) MHGKKIIIFTGPSLSHTEASSILEAEYRPPVRRGDIQEAMKENPDIIGIIDGVFHQSPAVGHREIIDAIRRGVKVVGGASMGAARASELSDLGMVGVGRIFRSYLEGEIESDDDVAVAFNPETLEPLSDSLVSIEFNLKRALRRGVIREDDFRKLMNTARNLFYPLRNYRRILHESGIPDDVKESLRSFLESEGRDLKREDALEVIRHIKRLAYTE
> 30	MtTfuA-R88A (enzyme) MHGKKIIIFTGPSLSHTEASSILEAEYRPPVRRGDIQEAMKENPDIIGIIDGVFHQSPAVGHREIIDAIRRGVKVVGGASMGALAASELSDLGMVGVGRIFRSYLEGEIESDDDVAVAFNPETLEPLSDSLVSIEFNLKRALRRGVIREDDFRKLMNTARNLFYPLRNYRRILHESGIPDDVKESLRSFLESEGRDLKREDALEVIRHIKRLAYTE
> 30	MtTfuA-D54A (enzyme) MHGKKIIIFTGPSLSHTEASSILEAEYRPPVRRGDIQEAMKENPDIIGIIAGVFHQSPAVGHREIIDAIRRGVKVVGGASMGALRASELSDLGMVGVGRIFRSYLEGEIESDDDVAVAFNPETLEPLSDSLVSIEFNLKRALRRGVIREDDFRKLMNTARNLFYPLRNYRRILHESGIPDDVKESLRSFLESEGRDLKREDALEVIRHIKRLAYTE
4.1	MtTfuA-S83A (enzyme) MHGKKIIIFTGPSLSHTEASSILEAEYRPPVRRGDIQEAMKENPDIIGIIDGVFHQSPAVGHREIIDAIRRGVKVVGGAAMGALRASELSDLGMVGVGRIFRSYLEGEIESDDDVAVAFNPETLEPLSDSLVSIEFNLKRALRRGVIREDDFRKLMNTARNLFYPLRNYRRILHESGIPDDVKESLRSFLESEGRDLKREDALEVIRHIKRLAYTE
2.1	MtTfuA-E91D (enzyme) MHGKKIIIFTGPSLSHTEASSILEAEYRPPVRRGDIQEAMKENPDIIGIIDGVFHQSPAVGHREIIDAIRRGVKVVGGASMGALRASDLSDLGMVGVGRIFRSYLEGEIESDDDVAVAFNPETLEPLSDSLVSIEFNLKRALRRGVIREDDFRKLMNTARNLFYPLRNYRRILHESGIPDDVKESLRSFLESEGRDLKREDALEVIRHIKRLAYTE
1.1	MtTfuA-K205M (enzyme) MHGKKIIIFTGPSLSHTEASSILEAEYRPPVRRGDIQEAMKENPDIIGIIDGVFHQSPAVGHREIIDAIRRGVKVVGGASMGALRASELSDLGMVGVGRIFRSYLEGEIESDDDVAVAFNPETLEPLSDSLVSIEFNLKRALRRGVIREDDFRKLMNTARNLFYPLRNYRRILHESGIPDDVKESLRSFLESEGRDLMREDALEVIRHIKRLAYTE
> 30	MtTfuA-H65A (enzyme) MHGKKIIIFTGPSLSHTEASSILEAEYRPPVRRGDIQEAMKENPDIIGIIDGVFHQSPAVGAREIIDAIRRGVKVVGGASMGALRASELSDLGMVGVGRIFRSYLEGEIESDDDVAVAFNPETLEPLSDSLVSIEFNLKRALRRGVIREDDFRKLMNTARNLFYPLRNYRRILHESGIPDDVKESLRSFLESEGRDLKREDALEVIRHIKRLAYTE
> 30	MtTfuA-D115A (enzyme) MHGKKIIIFTGPSLSHTEASSILEAEYRPPVRRGDIQEAMKENPDIIGIIDGVFHQSPAVGHREIIDAIRRGVKVVGGASMGALRASELSDLGMVGVGRIFRSYLEGEIESADDVAVAFNPETLEPLSDSLVSIEFNLKRALRRGVIREDDFRKLMNTARNLFYPLRNYRRILHESGIPDDVKESLRSFLESEGRDLKREDALEVIRHIKRLAYTE
3.2	MtTfuA-M84A (enzyme) MHGKKIIIFTGPSLSHTEASSILEAEYRPPVRRGDIQEAMKENPDIIGIIDGVFHQSPAVGHREIIDAIRRGVKVVGGASAGALRASELSDLGMVGVGRIFRSYLEGEIESDDDVAVAFNPETLEPLSDSLVSIEFNLKRALRRGVIREDDFRKLMNTARNLFYPLRNYRRILHESGIPDDVKESLRSFLESEGRDLKREDALEVIRHIKRLAYTE
5.4	MtTfuA-S16A (enzyme) MHGKKIIIFTGPALSHTEASSILEAEYRPPVRRGDIQEAMKENPDIIGIIDGVFHQSPAVGHREIIDAIRRGVKVVGGASMGALRASELSDLGMVGVGRIFRSYLEGEIESDDDVAVAFNPETLEPLSDSLVSIEFNLKRALRRGVIREDDFRKLMNTARNLFYPLRNYRRILHESGIPDDVKESLRSFLESEGRDLKREDALEVIRHIKRLAYTE

Biological target: the molecule itself
Assay: native MS

Binder	stoichiometry N
MtThiS-COSH (thiocarboxylated ThiS from Methanothermobacter sp. CaT2) (natural protein) MVIGMKFTVITDDGKKILESGAPRRIKDVLGELEIPIETVVVKKNGEIVIEEEEIFDGDIIEVIRVIYGG-{COSH}	2
